# Substitutions are numbered along the chain they refer to.
# B1: HSV010-16: gB-1 specific mouse monoclonal IgG; IgH SEQ ID NO: 76, IgL SEQ ID NO: 78 (antibody, V domains shown)
# VH: QIQLVQSGPELKKPGETVKISCKASGYTFTTYGMSWVKQAPGKDLKWMGWINTYSGVSTYGDDFKGRFALSLETSASTAYLQINNLKNEDTATYFCAQLNYGMDYWGQGTSVTVSSA
# VL: DIVMTQSHKFMSTSVGDRVSITCKASQDVSTSLAWYQQKPGQSPKLLIYSASYRYTGVPDRFTGSGSGTDFTFTISSVQAEDLAVYYCHQHYSIPRTFGGGTKLEIKR
# modifications: HSV010-16 heavy chain; HSV010-16 light chain
# B2: HSV010-20: gB-1 specific mouse monoclonal IgG; IgH SEQ ID NO: 64, IgL SEQ ID NO: 66 (antibody, V domains shown)
# VH: DVQLQESGPGMVRPSQSLSLTCTVTGYSITSGYDWHWIRHFPGNKLEWMGYISYSGLTNYNPSLRSRFSITHDTSKNHFFLKLNSVTTEDTATYYCARGPPWYFDVWGTGTTVTVSSA
# VL: DIVMTQSQKFMSTSVGGRVSITCKASQIVRATVAWYQQKPGQSPKPLIYLASNRHTGVPDRFTGSGSGTDFTLTISNVQSEDLADYFCLQYWNYPYTFGGGTKLEIKR
# modifications: HSV010-20 heavy chain; HSV010-20 light chain
# B3: HSV010-7: gB-1 specific mouse monoclonal IgG; IgH SEQ ID NO: 36, IgL SEQ ID NO: 38 (antibody, V domains shown)
# VH: QVQLQQSGPELVKPGASVKLSCKASGYTFTNYDINWVKQRPGQGLEWIGWIYPRDGSTKYNEKFKGKATLTIDTSSSTAYMELHSLTSEDSAVYFCARGIFYVNYDVYWGQGTLVTVSAA
# VL: DIQMTQSSSFLSVSLGGRVTITCKASDHINNWLAWYQQKPGHAPRLLISGAASLETGVPSRFSGSGSGKDYTLTITSLQTEDVATYYCQQYWSSPLTFGGGTKLELKR
# modifications: HSV010-7 heavy chain; HSV010-7 light chain
# B4: HSV010-6: gB-1 specific mouse monoclonal IgG; IgH SEQ ID NO: 44, IgL SEQ ID NO: 46 (antibody, V domains shown)
# VH: QVQLQQPGAELVKPGASVKLSCKASGYTFTNYWIHWVKQRPGQGLEWIGMIHPNIGITHYSERFKSKATLTVDKSSTTAYMQLSSLTSEDSAVYYCARGSDSGSAWFAYWGQGTLVTVSAA
# VL: B3 VL with F10Y, Q37L, H42N, I48M, A52T, T74S, S94T, G100A
# modifications: HSV010-6 heavy chain; HSV010-6 light chain
# B5: HSV010-9: gB-1 specific mouse monoclonal IgG; IgH SEQ ID NO: 48, IgL SEQ ID NO: 50 (antibody, V domains shown)
# VH: B4 VH with A24S, N31S, I34M, I55S, S61N, R63K, S66T, T77S, Y94S, D101N
# VL: B3 VL with F10Y, H42N, A52T, T74S, S94T, G100A
# modifications: HSV010-9 heavy chain; HSV010-9 light chain
# B6: HSV010-34: gB-1 specific mouse monoclonal IgG; IgH SEQ ID NO: 40, IgL SEQ ID NO: 42 (antibody, V domains shown)
# VH: EVQLVESGGGLVQPGESLKLSCESNEYEFPSHDMSWVRKTPEKRLELVAAINSDGGSTYYPDTMERRFIISRDNTKKTLYLQMSSLRSEDTALYYCARHSSGYVLDYWGQGTSVTVSSA
# VL: B3 VL with F10Y, N31H, H42N, A52T, T74S, T76A, S94T, L96Y, L106I
# modifications: HSV010-34 heavy chain; HSV010-34 light chain
# B7: HSV010-15: gB-1 specific mouse monoclonal IgG; IgH SEQ ID NO: 72, IgL SEQ ID NO: 74 (antibody, V domains shown)
# VH: B4 VH with N31S, K38Q, I55S, H59N, R63K, V72L, T77S, S84I, D101S
# VL: B3 VL with F10Y, A34P, H42N, A52T, T74S, G100A
# modifications: HSV010-15 heavy chain; HSV010-15 light chain
# B8: HSV010-4: gB-1 specific mouse monoclonal IgG; IgH SEQ ID NO: 32, IgL SEQ ID NO: 34 (antibody, V domains shown)
# VH: QVQLKESGPGLVAPSQSLSITCTVSGFSLSRHDVSWVRQPPGKGLEWLGVIWGDGSTNYHSALISRLSISKDNSKSQVFLKLNSLQNDDTATYYCAKEDYGIFPYWGQGTLVTVSAA
# VL: DIKMTQSPSSMYASLGEKVTITCKASQDISSYLSWFQQKPGKSPKTLIYRANRLVDGVPSRFSGSGSGQDYSLSISSLDYEDMGIYYCLQYDEFPLTFGAGTKLELKR
# modifications: HSV010-4 heavy chain; HSV010-4 light chain
# B9: HSV010-8: gB-1 specific mouse monoclonal IgG; IgH SEQ ID NO: 68, IgL SEQ ID NO: 70 (antibody, V domains shown)
# VH: B8 VH with S30N, R31N, H32Y, N87T
# VL: B8 VL with K18R, S30N, S74T, D79E, D82N
# modifications: HSV010-8 heavy chain; HSV010-8 light chain
# Experiments:
# [1] = system: HSV-2 G infected cell lysates; experiment: ELISA binding of recombinant antibodies to HSV-2 G infected cell lysates; set-up: species or system HSV-2 G strain; conditions: Table 3 summary
# Description: Binding of recombinant antibodies to HSV-2 G lysates was tested by ELISA. Both heavy and light chain V(D)J rearrangements were amplified from selected single B-cell culture wells (22D10, 32H6, 33B8, and 35H7) by standard RT-PCR. These cloned V(D)J rearrangements were introduced into expression vectors. Recombinant antibodies were obtained by co-transfection of these expression vectors into Expi293F cells. ≥4 mg of purified IgGs was obtained (not shown). […]
# Briefly, mice were vaccinated with ΔgD-2 and then 16 days after vaccination, the draining, inguinal lymph nodes were harvested. GC B cells were isolated from these tissues and were cultured in Nojima cultures. Although overall cloning efficiency of GC B cells from these (shipped) tissues was lower than those from freshly isolated tissues (6% vs. 20%), 50 GC clones were obtained that were specific to HSV-2 G strain (HSV-2 G or HSV2-G) lysate. GC B cells from inguinal lymph nodes of mice vaccinated with ΔgD-2 were sorted directly into 96-well plates (1 cell/well). These GC B cells were then cultured in the presence of NB-21.2D9 feeder cells. After culture, presence of IgG was first determined by ELISA, and then the reactivity of culture supernatant IgG against HSV-2 G lysates (HSV-2 G) and uninfected Vero lysates were tested by ELISA.
# Based on the obtained V(D)J sequences from each B-cell culture, paired heavy and light chains were re-expressed (as recombinant mouse IgG1 and IgG2c antibodies) in Expi293F cells (Kuraoka et al. Immunity 2016; DiLillo et al. Nature Medicine 2013). […] As expected, all recombinant antibodies reacted specifically with HSV-2 G lysates (FIG. 3). […] Binding of recombinant antibodies to HSV-2 G lysates was tested by ELISA. Both heavy and light chain V(D)J rearrangements were amplified from selected single B-cell culture wells (22D10, 32H6, 33B8, and 35H7) by standard RT-PCR. These cloned V(D)J rearrangements were introduced into expression vectors. Recombinant antibodies were obtained by co-transfection of these expression vectors into Expi293F cells. ≥4 mg of purified IgGs was obtained (not shown). […] These recombinant antibodies (≥4 mg each) were tested for identification of reacting antigen(s), in an in vitro FcγRIV activation assay (Promega FcγRIV ADCC Reporter Bioassay)(FIG. 4), and in vivo protection assay. […]
# [2] = biological target: glycoprotein B of HSV-1 (gB-1) (Human herpesvirus 1, UniProt P10211); experiment: Luminex multiplex assay, binding to gB-1; conditions: Table 3 summary
# Description: FIGS. 9A and 9B are graphs of median fluorescence intensity (MFI) versus IgG concentration (ng/ml), showing the binding of various recombinant antibodies to gB-1 as measured by Luminex multiplex assay.
# BMPC-23 binds HSV-1 gB (gB-1). The gB-1 binding of the antibodies was determined by Luminex multiplex assay. Mixtures of antigen (gB-1)-conjugated microspheres (1,000 counts each) were added to each well of 96-well filter plates (Millipore). After washing with PBS containing 1% BSA, 0.05% Tween 20 and 0.05% NaN3, serially diluted recombinant antibodies (5E7, 19G7, 18G4, 22E10, 3A2, 17G3, 22D10, 32H6, 33B8, 25H7, BMPC-23, and S5V2-29) were added to the plates and incubated for 2 hours at room temperature, with mild agitation of the plates. Samples were diluted in PBS containing 1% cow milk, 1% BSA, 0.05% Tween 20 and 0.05% NaN3. After washing, PE goat anti-mouse IgG was added to the plates and incubated for 1 hour at room temperature with mild agitation. After washing, microspheres were resuspended in PBS containing 1% BSA, 0.05% Tween 20 and 0.05% NaN3 and fluorescent signals from each microsphere were measured in a Bio-Plex® 3D machine.
# Finding gB-1 specific HSV antibodies. After Nojima culture (single B-cell culture), HSV-specific antibodies were cloned from germinal center B cells and tested for binding to HSV-1 gB-1 by Luminex multiplex assay as described above. FIGS. 9A and 9B show the gB-1 binding results for 10 antibodies in comparison with BMPC-23. With the exception of BMPC-23, the antibodies in Table 3 were derived from germinal center B cells (lymph nodes) taken 15-17 days after primary vaccination with ΔgD-2. BMPC-23 was derived from bone marrow plasmacytes taken 2 weeks post-boost with ΔgD-2. Nucleotide sequences and amino acid sequences for the heavy-chains and light chains are shown in Table 4, as are the amino acid sequences for the light chain and heavy chain CDR1, CDR2, and CDR3.
# [3] = biological target: gB-1 (Human herpesvirus 1, UniProt P10211); experiment: Luminex competition: inhibition of binding of BMPC-23 human IgG to gB-1; set-up: species or system HSV-1; conditions: for Competition with BMPC-23: Table 3 summary
# Description: FIGS. 10A-10G show the capacity of gB-1 specific mouse monoclonal IgG antibodies to inhibit binding of BMPC-23 human IgG antibodies to gB-1.
# Finding BMPC-like antibodies. Nine out of 10 gB-1 specific mouse monoclonal IgG antibodies in FIG. 3 were tested for their capacity to inhibit binding of BMPC-23 human IgG antibodies to gB-1. Serially diluted, gB-1 specific mouse monoclonal antibodies or irrelevant, control mouse antibody (H33Lγ1) were incubated with gB-1 conjugated Luminex beads. After incubation, fixed concentration (2 ng/ml) of BMPC-23 human IgG antibodies were added to each well. After washing, mouse anti-human lgG-PE was added to detect binding of human BMPC-23 antibodies. […] Strong inhibition by HSV010-4 (>95% at 222 ng/ml), HSV010-7 (>90% at 222 ng/ml), and HSV010-34 (>80% at 222 ng/ml), shown in FIGS. 10B, 10F, and 10G, respectively, indicates these antibodies bind epitopes on gB-1 closely overlapping with the one recognized by BMPC-23. Therefore, similar protective efficacy as BMPC-23 is expected from these antibodies (experiments in progress). […] Protective efficacy of these antibodies need to be tested (experiments in progress).
Molecule,Binding to HSV-lysate [1],Target antigens [2],Inhibition of binding of BMPC-23 human IgG antibodies to gB-1 (in words) ([3]; BMPC-23 human IgG 2 ng/ml),Competition with BMPC-23 [3]
B1,Yes,gB,,
B2,Yes,gB,No inhibition,No
B3,Yes,gB,,Strong
B4,Yes,gB,,Weak
B5,Yes,gB,,Weak
B6,Yes,gB,,Strong
B7,Yes,gB,,
B8,Yes,gB,,Strong
B9,Yes,gB,,
